Data on one substance can be found in publication PMC4962319.

Some results are limits rather than exact numbers.

The assay has as its target TIA-1-GLuc1 (UniProt P31483). Kind of assay: split reporter (BiFC, NanoBiT); split Gaussia luciferase protein-fragment complementation assay (PCA); GLuc1 and GLuc2 fusions coexpressed in live HEK293T cells, luminescence read 48 h after transfection with native coelenterazine.
UniProt P31483, sequence (P31483 whole entry, the tested form may be a part): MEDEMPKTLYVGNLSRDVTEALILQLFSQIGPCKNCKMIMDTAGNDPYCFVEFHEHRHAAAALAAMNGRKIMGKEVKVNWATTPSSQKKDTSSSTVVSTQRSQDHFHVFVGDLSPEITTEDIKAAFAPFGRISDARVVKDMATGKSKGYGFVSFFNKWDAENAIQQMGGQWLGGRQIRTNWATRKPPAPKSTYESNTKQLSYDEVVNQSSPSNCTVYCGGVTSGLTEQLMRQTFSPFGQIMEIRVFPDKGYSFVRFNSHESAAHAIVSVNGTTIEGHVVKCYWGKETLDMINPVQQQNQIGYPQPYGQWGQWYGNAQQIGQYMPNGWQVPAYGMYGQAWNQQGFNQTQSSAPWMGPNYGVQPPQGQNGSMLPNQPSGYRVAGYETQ

“TauE14-GLuc2 (from UniProt P10636-6 1-383) (natural protein)” gave a fold of PCA interaction signal over wildtype Tau greater than 6 fold.
